Test results taken from US20250026861A1 (INVENRA, published 2025).

T1: CD3
T1 chain: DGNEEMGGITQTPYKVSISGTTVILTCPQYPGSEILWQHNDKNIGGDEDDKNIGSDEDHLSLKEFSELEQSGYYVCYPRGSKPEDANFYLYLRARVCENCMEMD


What was measured:
[1] = biological target: T2, CTLA4 (UniProt P16410 36-161, limits assumed); experiment: Octet biolayer interferometry; antigen immobilized, B-Body as analyte
T2 construct: Immobilized antigen in the Octet assays
Source text: In each instance, the antigen is immobilized and the B-Body is the analyte.

[2] = biological target: T1, CD3; experiment: BLI (Octet), two-fold serial dilution (200-12.5 nM) of the construct

T2 sequence (P16410 36-161 limits assumed): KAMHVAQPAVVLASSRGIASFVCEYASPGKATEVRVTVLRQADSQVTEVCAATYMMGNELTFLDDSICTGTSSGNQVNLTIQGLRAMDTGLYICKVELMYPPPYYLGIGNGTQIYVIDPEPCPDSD

| Binder | binding result [1] | Kd [2] [nM] | koff [2] [s⁻¹] | kon [2] [M⁻¹ s⁻¹] |
| --- | --- | --- | --- | --- |
| bivalent bispecific B-Body “BC1” (bispecific antibody) chain 1: not shown chain 2: EVQLVESGGGLVQPGGSLRLSCAASGFTFSDYDIHWVRQAPGKGLEWVGDITPYDGTTNYADSVKGRFTISADTSKNTAYLQMNSLRAEDTAVYYCARLVGEIATGFDYWGQGTLVTVSSASPREPQVYTDPPSRDELTKNQVSLTCLVKGFYPSDIAVEWESNGQPENNYKTTPPVLDSDGSFFLYSKLTVDKSRWQQGNVFSCSVMHEALHNHYTQKSLSLSGEC chain 3: not shown chain 4: QVQLVESGGGVVQPGRSLRLDCKASGITFSNSGMHWVRQAPGKGLEWVAVIWYDGSKRYYADSVKGRFTISRDNSKNTLFLQMNSLRAEDTAVYYCATNDDYWGQGTLVTVSSASTKGPSVFPLAPSSKSTSGGTAALGCLVKDYFPEPVTVSWNSGALTSGVHTFPAVLQSSGLYSLSSVVTVPSSSLGTQTYICNVNHKPSNTKVDKKVEPPKSC | no binding | – | – | – |
| non-mutagenized SP34-89 monovalent B-Body (bispecific antibody, V domains shown, VL and VH cloned into one arm of a 1×1 BC1 B-Body; also called SP34-89 VL-WT/SP34-89 VH-WT) VH: EVQLVESGGGLVQPGGSLRLSCAASGFTFNTYAMNWVRQAPGKGLEWVARIRSKYNNYATYYADSVKGRFSISRDDSKNTAYLQMNSLRAEDTAVYYCVRHGNFGNSYVSWFAYWGQGTLVTV VL: QAVVTQEPSLTVSPGGTVTLTCRSSTGAVTTSNYANWVQQKPGQAPRGLIGGTNKRAPWTPARFSGSLLGGKAALTITGAQAEDEADYYCALWYSNLWVFGGGTKLTVL | – | 23 | 0.0071 | 300000 |
